Substitutions are numbered along the chain they refer to. In names and notes the source's numbering stands. Several values for one entry are separate records, joined by “and”; a condition that tells them apart may be missing. Equal entries are not always repeated.
B1: wild type recombinant N-terminal region of PTX3 (N_PTX3) (domain or fragment, human)
chain: ENSDDYDLMYVNLDNEIDNGLHPTEDPTPCACGQEHSEWDKLFIMLENSQMRERMLLQATDDVLRGELQRLREELGRLAESLARPCAPGAPAEARLTSALDELLQATRDAGRRLARMEGAEAQRPEEAGRALAAVLEELRQTRADLHAVQGWATG
notes: Pentraxin 3 (PTX3), human, residues 18-170 of the PTX3 preprotein; two non-authentic amino acids (Thr-Gly) before the C-terminal His tag; Organised into tetramers by SEC and native gel; The 5' primer begins at the ATG of the preprotein, so the signal peptide was probably encoded and cut off on secretion (surmise); also called WT; source: HEK-293 F, stably transfected, purified from culture …
B2: N_PTX3C103S (domain or fragment, human)
chain: B1 chain with C86S
notes: Pentraxin 3 (PTX3), human, residues 18-170 of the PTX3 preprotein, with C103S; two non-authentic amino acids (Thr-Gly) before the C-terminal His tag; Mixture of tetramers and dimers, more tetramers than dimers; also called single mutant; source: HEK-293 F, stably transfected, purified from culture supernatant (HisTrap, desalting)
B3: N_PTX3C47S/C49S/C103S (domain or fragment, human)
chain: B1 chain with C30S, C32S, C86S
notes: Pentraxin 3 (PTX3), human, residues 18-170 of the PTX3 preprotein, with C47S, C49S and C103S; two non-authentic amino acids (Thr-Gly) before the C-terminal His tag; Composed entirely of non-covalent dimers; also called triple mutant; C47/C49/C103; source: HEK-293 F, stably transfected, purified from culture supernatant (HisTrap, desalting)
B4: N_PTX3C47S/C49S (domain or fragment, human)
chain: B1 chain with C30S, C32S
notes: Pentraxin 3 (PTX3), human, residues 18-170 of the PTX3 preprotein, with C47S and C49S; two non-authentic amino acids (Thr-Gly) before the C-terminal His tag; Mixture of tetramers and dimers, more dimers than tetramers; also called double mutant; C47/C49; source: HEK-293 F, stably transfected, purified from culture supernatant (HisTrap, desalting)
B5: mouse TSG-6 (tumor necrosis factor-induced protein 6) (natural protein, UniProt O08859 18-275, looked up)
chain: WGFKNGIFHNSIWLEQAAGVYHREARAGRYKLTYAEAKAVCEFEGGRLATYKQLEAARKIGFHVCAAGWMAKGRVGYPIVKPGPNCGFGKTGIIDYGIRLNRSERWDAYCYNPHAKECGGVFTDPKRIFKSPGFPNEYDDNQVCYWHIRLKYGQRIHLSFLDFDLEHDPGCLADYVEIYDSYDDVHGFVGRYCGDELPEDIISTGNVMTLKFLSDASVTAGGFQIKYVTVDPASKSSQAKNTSTTGNKKFLPGRFSHL
notes: TSG-6 (tumor necrosis factor-induced protein 6), mouse; source: bought: R&D

Target: the molecule itself
Test: SEC + native gel or EMSA; Superose 6 in 20 mM sodium phosphate, 150 mM NaCl, pH 7.4; native 4-20% polyacrylamide gel without SDS; oligomeric state of purified N_PTX3 proteins
Conditions: not given

| Binder | stoichiometry N |
| --- | --- |
| B1 | 4 |
| B2 | 4 and 2 |
| B3 | 2 |
| B4 | 4 and 2 |

What follows are binders tested against T1, biotinylated recombinant full length PTX3 (human, UniProt P26022 18-381, biotin) (assay: ELISA; competition: wells coated with 500 ng of IαI or TSG-6; 50 ng/well biotinylated PTX3 with or without unlabeled N_PTX3 or triple mutant, 1 h at 37 °C; HRP-streptavidin). Conditions: both partners purified.
T1 construct: Pentraxin 3 (PTX3), human recombinant wild type, full length; As a secreted protein it probably lacks the signal peptide (residues 1-17; surmise); also called bPTX3; biotinylated PTX3

| Binder | binding result |
| --- | --- |
| B5 | binds |

Each binder was assayed against B5 (assay: ELISA; N_PTX3 proteins coated on wells (10 μg/ml); IαI or TSG-6 added in PBS with Ca2+ and Mg2+, 0.05% Tween-20, 1% BSA, pH 7.4, 2 h at 37 °C; detected with polyclonal anti-IαI or anti-TSG-6). Conditions: both partners purified.

| Binder | binding result |
| --- | --- |
| B1 | binds |
| B2 | binds |
| B3 | binds |
| B4 | binds |

Source: article PMC3507621, “Implication of the oligomeric state of the N-terminal PTX3 domain in cumulus matrix assembly” (Matrix Biology, 2011)
